T1: SYNGAP1-nanoluc-alfa-tag-fusion
T1 chain: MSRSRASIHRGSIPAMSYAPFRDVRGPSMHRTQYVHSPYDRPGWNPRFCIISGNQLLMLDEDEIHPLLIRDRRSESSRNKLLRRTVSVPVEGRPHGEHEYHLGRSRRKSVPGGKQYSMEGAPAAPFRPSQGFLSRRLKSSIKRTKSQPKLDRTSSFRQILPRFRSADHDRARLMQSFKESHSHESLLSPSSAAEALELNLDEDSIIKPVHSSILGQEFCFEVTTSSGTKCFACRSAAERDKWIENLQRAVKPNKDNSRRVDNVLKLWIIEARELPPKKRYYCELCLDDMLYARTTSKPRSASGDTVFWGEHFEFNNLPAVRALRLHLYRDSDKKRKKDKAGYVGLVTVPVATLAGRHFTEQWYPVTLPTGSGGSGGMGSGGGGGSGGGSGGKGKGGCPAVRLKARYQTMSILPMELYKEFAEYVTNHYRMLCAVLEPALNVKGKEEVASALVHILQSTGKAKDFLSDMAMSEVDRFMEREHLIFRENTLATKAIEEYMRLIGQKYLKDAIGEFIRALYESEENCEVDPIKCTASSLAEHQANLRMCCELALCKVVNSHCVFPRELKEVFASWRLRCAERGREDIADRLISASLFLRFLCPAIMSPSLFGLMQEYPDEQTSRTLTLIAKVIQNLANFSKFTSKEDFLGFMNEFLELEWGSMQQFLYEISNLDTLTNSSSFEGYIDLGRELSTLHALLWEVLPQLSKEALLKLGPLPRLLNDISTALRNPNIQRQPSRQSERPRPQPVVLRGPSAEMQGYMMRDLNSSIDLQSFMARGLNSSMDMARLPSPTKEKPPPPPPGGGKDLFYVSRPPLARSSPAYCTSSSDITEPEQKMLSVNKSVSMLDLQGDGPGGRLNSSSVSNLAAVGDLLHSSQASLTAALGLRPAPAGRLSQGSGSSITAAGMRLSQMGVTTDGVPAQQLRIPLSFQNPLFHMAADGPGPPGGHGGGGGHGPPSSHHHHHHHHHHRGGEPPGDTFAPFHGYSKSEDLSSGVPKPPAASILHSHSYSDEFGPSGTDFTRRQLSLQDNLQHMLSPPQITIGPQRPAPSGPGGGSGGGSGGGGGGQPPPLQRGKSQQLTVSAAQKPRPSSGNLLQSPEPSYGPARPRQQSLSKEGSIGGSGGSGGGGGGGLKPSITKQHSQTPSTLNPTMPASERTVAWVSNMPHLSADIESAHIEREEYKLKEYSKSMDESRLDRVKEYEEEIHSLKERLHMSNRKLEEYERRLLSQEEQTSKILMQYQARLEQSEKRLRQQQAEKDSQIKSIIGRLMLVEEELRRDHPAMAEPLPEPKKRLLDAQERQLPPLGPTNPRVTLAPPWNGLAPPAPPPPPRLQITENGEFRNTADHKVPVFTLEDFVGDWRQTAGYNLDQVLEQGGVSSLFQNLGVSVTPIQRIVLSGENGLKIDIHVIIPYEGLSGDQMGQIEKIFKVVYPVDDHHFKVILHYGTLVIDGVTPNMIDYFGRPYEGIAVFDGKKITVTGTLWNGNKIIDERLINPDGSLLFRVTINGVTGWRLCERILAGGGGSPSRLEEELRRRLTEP

B1: FireflyLuciferase-P2A-anti-syngap1_FLX00153-Cezanne (other)
chain: MEDAKNIKKGPAPFYPLEDGTAGEQLHKAMKRYALVPGTIAFTDAHIEVDITYAEYFEMSVRLAEAMKRYGLNTNHRIVVCSENSLQFFMPVLGALFIGVAVAPANDIYNERELLNSMGISQPTVVFVSKKGLQKILNVQKKLPIIQKIIIMDSKTDYQGFQSMYTFVTSHLPPGFNEYDFVPESFDRDKTIALIMNSSGSTGLPKGVALPHRTACVRFSHARDPIFGNQIIPDTAILSVVPFHHGFGMFTTLGYLICGFRVVLMYRFEEELFLRSLQDYKIQSALLVPTLFSFFAKSTLIDKYDLSNLHEIASGGAPLSKEVGEAVAKRFHLPGIRQGYGLTETTSAILITPEGDDKPGAVGKVVPFFEAKVVDLDTGKTLGVNQRGELCVRGPMIMSGYVNNPEATNALIDKDGWLHSGDIAYWDEDEHFFIVDRLKSLIKYKGYQVAPAELESILLQHPNIFDAGVAGLPDDDAGELPAAVVVLEHGKTMTEKEIVDYVASQVTTAKKLRGGVVFVDEVPKGLTGKLDARKIREILIKAKKGGKIAVTRLKGSGATNFSLLKQAGDVEENPGPRSGTGSSGQLQLVESGGGLVQPGESLRLSCAASGFTFSNYRMYWVRMAPGKGLEWVSDIDRSGTYTYYADSVKGRFAISRDNAKNTVYLQMNSLKPEDTAVYYCAADRRLIVDLTPEVYDHWGQGTQVTVSSGAPGSGPPSFSEGSGGSRTPEKGFSDREPTRPPRPILQRQDDIVQEKRLSRGISHASSSIVSLARSHVSSNGGGGGSNEHPLEMPICAFQLPDLTVYNEDFRSFIERDLIEQSMLVALEQAGRLNWWVSVDPTSQRLLPLATTGDGNCLLHAASLGMWGFHDRDLMLRKALYALMEKGVEKEALKRRWRWQQTQQNKESGLVYTEDEWQKEWNELIKLASSEPRMHLGTNGANCGGVESSEEPVYESLEEFHVFVLAHVLRRPIVVVADTMLRDSGGEAFAPIPFGGIYLPLEVPASQCHRSPLVLAYDQAHFSALVSMEQKENTKEQAVIPLTDSEYKLLPLHFAVDPGKGWEWGKDDSDNVRLASVILSLEVKLHLLHSYMNVKWIPLSSDAQAPLAQ
B2: FireflyLuciferase-P2A-anti-syngap1_FLX00152-Cezanne (other)
chain: MEDAKNIKKGPAPFYPLEDGTAGEQLHKAMKRYALVPGTIAFTDAHIEVDITYAEYFEMSVRLAEAMKRYGLNTNHRIVVCSENSLQFFMPVLGALFIGVAVAPANDIYNERELLNSMGISQPTVVFVSKKGLQKILNVQKKLPIIQKIIIMDSKTDYQGFQSMYTFVTSHLPPGFNEYDFVPESFDRDKTIALIMNSSGSTGLPKGVALPHRTACVRFSHARDPIFGNQIIPDTAILSVVPFHHGFGMFTTLGYLICGFRVVLMYRFEEELFLRSLQDYKIQSALLVPTLFSFFAKSTLIDKYDLSNLHEIASGGAPLSKEVGEAVAKRFHLPGIRQGYGLTETTSAILITPEGDDKPGAVGKVVPFFEAKVVDLDTGKTLGVNQRGELCVRGPMIMSGYVNNPEATNALIDKDGWLHSGDIAYWDEDEHFFIVDRLKSLIKYKGYQVAPAELESILLQHPNIFDAGVAGLPDDDAGELPAAVVVLEHGKTMTEKEIVDYVASQVTTAKKLRGGVVFVDEVPKGLTGKLDARKIREILIKAKKGGKIAVTRLKGSGATNFSLLKQAGDVEENPGPRSGTGSSGQVQLVESGGGLVQPGGSLRLSCAASGFSFSNFPMMWVRQAPGKGREWVADINQDGRNTYYADSVKGRFTISRDNAKTTVYLQMNNLNPEDTAVYYCQAIRTTTHFDSWGQGTQVTVSSGAPGSGPPSFSEGSGGSRTPEKGFSDREPTRPPRPILQRQDDIVQEKRLSRGISHASSSIVSLARSHVSSNGGGGGSNEHPLEMPICAFQLPDLTVYNEDFRSFIERDLIEQSMLVALEQAGRLNWWVSVDPTSQRLLPLATTGDGNCLLHAASLGMWGFHDRDLMLRKALYALMEKGVEKEALKRRWRWQQTQQNKESGLVYTEDEWQKEWNELIKLASSEPRMHLGTNGANCGGVESSEEPVYESLEEFHVFVLAHVLRRPIVVVADTMLRDSGGEAFAPIPFGGIYLPLEVPASQCHRSPLVLAYDQAHFSALVSMEQKENTKEQAVIPLTDSEYKLLPLHFAVDPGKGWEWGKDDSDNVRLASVILSLEVKLHLLHSYMNVKWIPLSSDAQAPLAQ
B3: FireflyLuciferase-P2A-anti-syngap1_FLX00157-Cezanne (other)
chain: MEDAKNIKKGPAPFYPLEDGTAGEQLHKAMKRYALVPGTIAFTDAHIEVDITYAEYFEMSVRLAEAMKRYGLNTNHRIVVCSENSLQFFMPVLGALFIGVAVAPANDIYNERELLNSMGISQPTVVFVSKKGLQKILNVQKKLPIIQKIIIMDSKTDYQGFQSMYTFVTSHLPPGFNEYDFVPESFDRDKTIALIMNSSGSTGLPKGVALPHRTACVRFSHARDPIFGNQIIPDTAILSVVPFHHGFGMFTTLGYLICGFRVVLMYRFEEELFLRSLQDYKIQSALLVPTLFSFFAKSTLIDKYDLSNLHEIASGGAPLSKEVGEAVAKRFHLPGIRQGYGLTETTSAILITPEGDDKPGAVGKVVPFFEAKVVDLDTGKTLGVNQRGELCVRGPMIMSGYVNNPEATNALIDKDGWLHSGDIAYWDEDEHFFIVDRLKSLIKYKGYQVAPAELESILLQHPNIFDAGVAGLPDDDAGELPAAVVVLEHGKTMTEKEIVDYVASQVTTAKKLRGGVVFVDEVPKGLTGKLDARKIREILIKAKKGGKIAVTRLKGSGATNFSLLKQAGDVEENPGPRSGTGSSGQVQLVESGGGLVQAGASLRLSCAASERTFGHYAMGWFRQAPGKEREFVATISWKGGTTGYAHSVKGRFTISRDSAKNMVYLQMNSLKPEDTAVYYCAARNTMSGSMSSSAYPYWGQGTQVTVSSGGGGSGGGGSGGGGSGGGGSQVQLVESGGGLVQAGASLRLSCAASERTFGHYAMGWFRQAPGKEREFVATISWKGGTTGYAHSVKGRFTISRDSAKNMVYLQMNSLKPEDTAVYYCAARNTMSGSMSSSAYPYWGQGTQVTVSSGAPGSGPPSFSEGSGGSRTPEKGFSDREPTRPPRPILQRQDDIVQEKRLSRGISHASSSIVSLARSHVSSNGGGGGSNEHPLEMPICAFQLPDLTVYNEDFRSFIERDLIEQSMLVALEQAGRLNWWVSVDPTSQRLLPLATTGDGNCLLHAASLGMWGFHDRDLMLRKALYALMEKGVEKEALKRRWRWQQTQQNKESGLVYTEDEWQKEWNELIKLASSEPRMHLGTNGANCGGVESSEEPVYESLEEFHVFVLAHVLRRPIVVVADTMLRDSGGEAFAPIPFGGIYLPLEVPASQCHRSPLVLAYDQAHFSALVSMEQKENTKEQAVIPLTDSEYKLLPLHFAVDPGKGWEWGKDDSDNVRLASVILSLEVKLHLLHSYMNVKWIPLSSDAQAPLAQ
B4: FireflyLuciferase-P2A-anti-syngap1_FLX00156-Cezanne (other)
chain: MEDAKNIKKGPAPFYPLEDGTAGEQLHKAMKRYALVPGTIAFTDAHIEVDITYAEYFEMSVRLAEAMKRYGLNTNHRIVVCSENSLQFFMPVLGALFIGVAVAPANDIYNERELLNSMGISQPTVVFVSKKGLQKILNVQKKLPIIQKIIIMDSKTDYQGFQSMYTFVTSHLPPGFNEYDFVPESFDRDKTIALIMNSSGSTGLPKGVALPHRTACVRFSHARDPIFGNQIIPDTAILSVVPFHHGFGMFTTLGYLICGFRVVLMYRFEEELFLRSLQDYKIQSALLVPTLFSFFAKSTLIDKYDLSNLHEIASGGAPLSKEVGEAVAKRFHLPGIRQGYGLTETTSAILITPEGDDKPGAVGKVVPFFEAKVVDLDTGKTLGVNQRGELCVRGPMIMSGYVNNPEATNALIDKDGWLHSGDIAYWDEDEHFFIVDRLKSLIKYKGYQVAPAELESILLQHPNIFDAGVAGLPDDDAGELPAAVVVLEHGKTMTEKEIVDYVASQVTTAKKLRGGVVFVDEVPKGLTGKLDARKIREILIKAKKGGKIAVTRLKGSGATNFSLLKQAGDVEENPGPRSGTGSSGQVQLVESGGGLVQPGGSLRLACAASGFTFGTHAMHWVRWAPGKGFEWVSTISSGGGGTRYADSVKGRFTISRDNAKNTVYLQMDNLKPEDTAVYYCNSPSNIANDNWGQGTQVTVSSGGGGSGGGGSGGGGSGGGGSQVQLVESGGGLVQPGGSLRLACAASGFTFGTHAMHWVRWAPGKGFEWVSTISSGGGGTRYADSVKGRFTISRDNAKNTVYLQMDNLKPEDTAVYYCNSPSNIANDNWGQGTQVTVSSGAPGSGPPSFSEGSGGSRTPEKGFSDREPTRPPRPILQRQDDIVQEKRLSRGISHASSSIVSLARSHVSSNGGGGGSNEHPLEMPICAFQLPDLTVYNEDFRSFIERDLIEQSMLVALEQAGRLNWWVSVDPTSQRLLPLATTGDGNCLLHAASLGMWGFHDRDLMLRKALYALMEKGVEKEALKRRWRWQQTQQNKESGLVYTEDEWQKEWNELIKLASSEPRMHLGTNGANCGGVESSEEPVYESLEEFHVFVLAHVLRRPIVVVADTMLRDSGGEAFAPIPFGGIYLPLEVPASQCHRSPLVLAYDQAHFSALVSMEQKENTKEQAVIPLTDSEYKLLPLHFAVDPGKGWEWGKDDSDNVRLASVILSLEVKLHLLHSYMNVKWIPLSSDAQAPLAQ

Biological target: T1, SYNGAP1-nanoluc-alfa-tag-fusion
Assay: cell-based or functional assay

Increase in SYNGAP1 expression over the control, ≥ 2 fold:
B1
B2
B3
B4

Source: patent US20240025984A1 (FLUX THERAPEUTICS, published 2024)
